B1: TPR t1 (parent)
chain: GACCAAUCUGCCCUCAGAGCUCGAGAACAUCUUCGGAUGCAGAGGAGGCAGGCUUCGGUGGCGCGAUAGCGCCAACGUCCUCAACCUCCAAUGCAUCCCACCACAUGAUGAUGCCUGAAGAGCCUUGGUUUUUUG

Variants of: B1
Test: polymerase ribozyme fitness, log enrichment relative to wild type (log ratio); higher = more active; in vitro selection for triplet polymerase activity
How it was run: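 Input and output libraries were sequenced on Illumina after a single in vitro selection round, run in triplicate on PCR-built, transcribed mutant libraries of each subunit of a heterodimeric triplet polymerase ribozyme. Selection annealed libraries to a biotinylated primer, the partner subunit and triplets, incubated them frozen at −7 °C, then gel-excised extended constructs for streptavidin-bead capture and RT-PCR. Genotypes with ≥10 input reads and ≥1 read per output were kept. Fitness is the logarithm, taken in base 2, of genotype enrichment divided by wild-type enrichment, using inverse-variance-weighted replicate averages.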

In order of rising “polymerase ribozyme fitness (log ratio)” value:
1. GACCAAUCUUCCCUCAGAGCUCGAGAACAUCGUCGGAUGCAGAGGAGGCAGGCUUCGGUGGCGCGAUAGCGCCAACGUCCUCAACCUCCAAUGCAUCCCACUACAUGAUGAUGCCUGAAGAGCUUGGGUUUUUUG [G10U U32G C102U C124U U126G]  -7.39
2. GACCAAUCAGCCCUCAGAGCUCGUGAACAUCUUCGGAUGCAGAGGAGGCAGGCUUCGGUGGCGCGAUAGCACCAACGUCCUCAACCUCCAAUGCAUCCCACCACAUAAUGAUGCCUGAAGAGCCGUGGUUUUUUG [U9A A24U G71A G107A U125G]  -7.09
3. GACCAAGCUGCCCUCAGAGUUCGAGAACAUCUUCGGAUGCAGAGGAGGCAGGUUUCGGUGGCGCGAUCGCGCCAACGUCCUCAACCUCCAAUGCAUCCCACCACAUGAUGAAGCCUGAAGAGCCUUGGUUUUUUG [U7G C20U C53U A68C U112A]  -6.37
4. GACCAAUCUGCCCUCAGAGCUCGAGAACAUCUUCGGAUGCCGAGGAGGCAGGCUUCGGUGGCGCGAUAGAGCCAACGUCCACAACCUCCAACGCAUCCCACCACAUGAUGAUGCCUGAAGAGCCUUGGUUUUUUG [A41C C70A U81A U92C]  -5.78
5. GACCAAUCUGCACUCAGCGCUCGAGAACAUCUUCGGAUGCAGAGGAGGCAGGCUUCGGUGGCGCGAUAGCGCCAACGUCCGCAACCUCCAAUGCAUCCCACCACAUGAUGAUGCCUGAAAAGCCUUGGUUUUUUG [C12A A18C U81G G120A]  -5.16
6. GACCAAUCUGCCCUCAGAGCUCGAGAACAUCUUCGGAUGCAGAGGAGGCAGGCUUCGGUGGCGCGAUAGGGCCAACGUCCUCAUUCUCCAAUGCAUCCCACCAUAUGAUGAUGCCUGAAGAGCCUUGGUUUUUUG [C70G A84U C85U C104U]  -4.81
7. GACCAAUCUGCCCUCAGAGCUCGAGAACAUCUUCGGAUGCAAAGGAGGCAGGCUUCGGUGGCGCGAUAGCGCCAACGUCCUCAACCUACAAUGCAUCCCACCACAUGAUAAUGCCUGAAGAGCCUUGGUUUUUUG [G42A C88A G110A]  -4.27
8. GACCAAUCUGCCCUCAGAGCUCGAGAACAUCUUCGGAUGCAGAGGAGGCAGGCUUCGGUGGCACGAUAGCGCCAACGUCCUCAACCUCCAAUGCAUCCCACCACAUGAUGAUGCCCGAAGAGUCUUGGUUUUUUG [G63A U116C C123U]  -4.18
9. GACCAAUCUGCCCUCAGAGCUCGAGAACAUCUUCGGAUGCAGAGGAGGCAGGCUUCGGUGGCGCGAUAGGGCCAACGUCCUCAACCUCCAAUGCAUCCCACCACAUGAUGAUCCCUGAAGAGCCUUGGUUUUUUG [C70G G113C]  -4
10. GACCAAUCUGCCCUCAGAGCUCGAGAACAUCUUCGGAGGCAGAGGAGGCAGGCUUCGGUGGCGCGAUAGCGCCAACGUCCUCAACCUCCAAUGCAUCCCACCACAUGAUGAUUCCUGAAGAGCCGUGGUUUUUUG [U38G G113U U125G]  -3.75
11. GACCAAUCUGCCCACAGAGCUCGAGAACAUCUUCGGAUGCAGAGGAGGUAGGCUUCGGUGGCGCGAUAGCACCAACGUCCUCAACCUCCAAUGCAUCCCACCACAUGAUGAUGCCUGAAGAGCCUUGGUUUUUUG [U14A C49U G71A]  -3.73
12. GACCAAUCUGCCCUCAGAGCUCGAGAACAUCUUCGGAUGCAGAGGGGGCAGGCUUAGGUGGCGCGAUAGCGCCAACGUCCUCACCCUCCAAUGCAUCCCACCAAAUGAUGAUGCUUGUUGAGCCUUGGUUUUUUG [A46G C56A A84C C104A C115U A118U A119U]  -3.57
13. GACCAAUCUGCCCUCAGAGUUCGAGAACAUCUUCGGAUGCAGAGGAGGCAGGCUUCGGUGCCGCGAUAGCGCCAACGUCCUCAACCUCCAAUCCAUCCCACCACAUGAUGAUGCCUGAAGAGCCUUGGUUUUUUG [C20U G61C G93C]  -3.53
14. GACCAAUCUGCCCUCAGAGCUCGAGAACAUCUUCGGAUGCACAGGAGGAAGGCUUCGGUGGCGCGAUAGCGCCAACGUCCUCAACCUCCAAUCCAUCCCACCACAUGAUGAUGCCUGAAGAGCCUUGGUUUUUUG [G42C C49A G93C]  -3.52
15. GACCAAUCUGCCCUCAGAGCUCGAGAACAUCUUCGGAUGCAGAGGAGGGAGGCUUCGGUGGCGCGAUAGUGCCAACGUCCUCAAGCUCCAAUGCAUCCCACCACUUGAUGAUGCCUGAAGAGCCUUGGUUUUUUG [C49G C70U C85G A105U]  -3.38
16. GACCAAUCUGCCCUCAGAGCUCGAGAACCUCUUCGGAUGCAGAGGAGGCAGGCUUGGGUGGCGCGAUAGCGCCAACGUCCUCAACCUCCAAUGCAUCCCACCACAUGAUGAUGCCUGAAGAGCCUUGGUUUUUUG [A29C C56G]  -3.25
17. GACCAAUCUGCCCUCAGAGCUCGAGAACAUCUUCGGAUGCAGAGGAGGCAGGAUUCGGUGGCGCGAUAGAGCCAUCGUACUGAACCUCCAAUGCAUCCCACCACAUGAUGACGCCUGAAGAGCCUUGGUUUUUUG [C53A C70A A75U C79A C82G U112C]  -3.2
18. GACCAAUCUGUCCUCAGAGCUCGAGAACAUCUUCGGAUGCAGAGGAGUCAGGCUUCUGUGCCGCGAUAGCGCCAACGUCCUCAACCUCUAAUGCAUCCCACCACAAGAUGAUGCCUGAAGAGCCUUGGUUUUUUG [C11U G48U G57U G61C C89U U106A]  -3.19
19. GACCAAUCUGCCCUCAGAGCUCGAGAACAUCUUCGCAUGCAGAGGAGGCAGGCUUCGGUGGCGCGAUAGCGCCAACGUCCUCAACCUCCAAUGCAUCCCACAACAUGAUGAUGCCUGAAGAGCCUUGGUUUUUUG [G36C C102A]  -3.12
20. GACCAAUCUGCCCUAAGAGCUCGAGAACAUCUUCGGAUGCAGAGGACGCAGGCUUCGGUGGCGCGAUAGCGCCAACGUCCUCAACCUCCAAUGCAUCCCACCACAUGAUGAUGCCUGAAGAGCCUUGGUUUUCUG [C15A G47C U133C]  -3.12
21. GACCAAUCUGCCCUCAGAGCUCGAGAACAUCUUCGGAUGCAGAGGAGGCAGGCUUCGGUGGCGCGAUAGCGCCAACGUCCUCAACCUCCAAUGCAUCCCACCACCUGAUGAUGACUGAAGGGCCUUGGUUUUUUG [A105C C114A A121G]  -3.08
22. GACCAAUCUGCCCUCAGAGCUCGAGAACAUCUUCGGAUUCAGAGGAGGCAGGCUUCGGUGGCGCGAUAGCGCUAACGUCCUCAACCUCCAAUGCAUCCCACCACAUGAUGAUGUCUGAAAAGCCUUCGUUUUUUG [G39U C73U C114U G120A G127C]  -3.02
23. GACCAAUCUGCCCUCAGAGCUCGAGAACAUCUUCGGAUGCAGAGGAGGCAGGCUUCGCUGGCGCGAUAGCGCCAACGUCCUCAACAUCCAAUGCAUCCCACCACAUGAUGAUGCUUGAAGAGCCUUGGUUUUUUG [G58C C86A C115U]  -2.72
24. GACCAAUCUGCCCUCAGAGCUCGAGAACAUCUUCGGAUGCAGAGGAGUCAGGCUUCGGUGGCGCGAUAGUGCCAACGUCCUCAACUUCCAAUGCAUCCCACCACAUGAUGAUACCUGAAGAGCCUUGGUUUUUUG [G48U C70U C86U G113A]  -2.66
25. GACCAAUCUGCCCUCAGAGCUCGAGAACAUCUUCGGAUGCAGAUGAGGCAGGCUUCGGUGGCGCGAUAGCGGCAACGUCCUCAAACUCCAAUGCAUCCCACCACAUGAUGAUGCCUGAAGAGCCUUGGUUUUUUG [G44U C72G C85A]  -2.52
26. GACCAAUCUGCCCUCAGAGUUAGAGAACAUCUUCGGAUGCAGAGGAGGCCGGCUUCGGUGGCGCGAUAUCGCCAACGUCCUCAACCUCCAAUGCAUCCCACCACAUGAUGAUGCCUGAAGAGCCUUGGUUUUUUG [C20U C22A A50C G69U]  -2.32
27. GACCAAUCUGCCCUCAGAGCUCGAGAACAUCUUCGGAUGCAGAGGAGGCAGGCUUCGGUGGCGCGAUAGCGCCAACGUACUCAACCUCCAGUGCAUCCCACCACAUGAUGAUGCCUGAAGAGCCUUGGUUUUUUG [C79A A91G]  -2.3
28. GACCAAUCUGCCCUCAGAGCUCGAGAACAUCUUCGGAUGCAGAGGAGGUAGGCUUCGGUGGCGCGAUAGCGCCAACGUCCUCAACCUCCAAUGCAUCCCAGCACAUGAUGAUGCCUGAAGAGCCUUGGUUUUUUG [C49U C101G]  -2.04
29. GACCAAUCUGCCUUCAGAGCUCGAGAACAUCUUCGGAUGCAGAGGAGGCAGGCUUCGGUGGCGCGAUAGCUCCAACGUCCUCAACCUCCAAUGCAUCCCACCACAUGAUGAUGCCGGAAGAGCCUUGGUUUUUUG [C13U G71U U116G]  -1.86
30. GACCAAUCUGCCCUCAGAGCUCGAGAACAUCUUCGGAUGCAGAGGAGGUAGGCUUCGGUGGCGCGAUAGCGCCAACGUCCUCAACCUCCAAUACAUCCCACCACAUGAUGAUGCCUGAAGAACCUUGGUUUUUUG [C49U G93A G122A]  -1.37
31. GACCAAUCUGCCCUCAGAGCUCGAGAACAUCUUCGGAUGCAGAGGUGGCAGGCUUCGGUGGCGCGAUAGCGCCAACGUCCUCAACCGCCAAUACAUCUCACCACAUGAUGAUGCCUGAAGAGCCUUGGUUUUUUG [A46U U87G G93A C98U]  -1.2
32. GACCAAUCUGCCCUCAGAGCUCGAGAACAUCUUCGGAUGCAGAGGAGGCAGGCUUCGGUAGCGCGAUAGCGGCAACGUCCUCAACCUCCAAUGCAUCCCACCACAUGAUGAUGCCUGAAGAGCCUUGGUUAUUUG [G60A C72G U131A]  -1.09
33. GACCAAUCUGCCCUCAGAGCUCGAGAACAUCUUCGGAUGCAGAUGAGGCAGGAUUAGGUGGCGCGAUAGCGCCAACGUCCUCAACCUCCAAUGCAUCCCACCACAUGAUGCUGCCUGAAGAGCCUUGGUUUUUUG [G44U C53A C56A A111C]  -0.781
34. GACCAAUCUGCCCUCAGAGCUCGAGAACAUCUUCGUAUGCAGAGGAGGCAGGCUUCGGUGGCGCGAUAUCGCCAACGUCCUCAACCUCCAAUGCAUCCCACCACAUGAUGAUGCCUGAAGAGCCUUGGUUUUUUG [G36U G69U]  -0.697
35. GACCAAUCUGCCCUCAGAGCUCGAGAACAUCUUCGGAUGCAGAGGAGGCAGGCUUUGGUGGCGCGAUAGCGCCAACGUCCUCAACCUACAAUGCAUCCCACCACAUGAUGAUGCCUGAAGAGCCUUGGUUUUUUG [C56U C88A]  -0.497
36. GACCAAUCUGCCCUCAGAGCUCGAGAACAUCUUCGGAUGCAGAGGAGGCAGGCUUCGGUGGCGCGAUAGCGCGAACGUCCUCAACCUCCAAUGCAUCCCACCACAUGAUGAUGCCUGUAGAGCCUUGGUUUUUUG [C73G A118U]  -0.0973
37. GACCAAUCUGCCCUCAGAGCUCGAGAACAUCUUCGGAUGCAGAGGAGACAGGCUUCGGUGGCUCGAUAGCGCCAACGUCCUCAACCUCCAAUGCAUCCCACCACAUGAUGAUGCCUGAAGUGCCUUGGUUUUUUG [G48A G63U A121U]  0.283
38. GACCAAGCUGCCCUCAGAGCUCGAGAACAUCUUCGGAUGCAGAGGAGGCAGGCUUCGGUGUCGCGAUAGCGCCAACGUCCUGAACCUCCACUGCAUCCCACCACAUGAUGACGCCUGAAGAGCCUUGGUUUUUUG [U7G G61U C82G A91C U112C]  0.65
39. GACCAAUCUGCUCUCAGAGCUCGAGAACAUCUUCGGAUCCAGAGGAGGCAGGCUUCGGUGGCGCGAUAGCGCCAACGUCCUCAACCUCCAAUGCAUCCCACCACAUGAUGAUGCCUGAAGCGCCUUGGUUUUUUG [C12U G39C A121C]  0.709
40. GACCAAUCUGCCCUCAGAGCUCGAGAACAUCUUCGGAUGCAGAGGAGGCAGGCUUCGGUGGCGCGAUACCGCCAACGUCCUCAACCUCCAAUGCAUCCCACCACAUGAUGAUGCCUGAAGGGCCUUGGUUUUUUG [G69C A121G]  0.734
41. GACCAAUCUGCCCUCAGAGCUCGAGAACAUCUUCGGAUGCAGAGGAGGCAGGCUUCGGUGGCGCGAUAGCGCCAACGGCCUCAACCUCCAAUGCAUCCCACCACAUGAUGAGGCCUGAAGAGCCUUGGUUUUUUG [U78G U112G]  1.33
42. GACCAAUCUGCCCUCAGAGCUCGAGAACAUCUUCGGAUGCAGAGGAGGCAGGCUUCGGUGGCGCGAUAGCGCCAACGUCCUCAACCUCCAAUGCAUCCCCCCAUAUGAUGAUGCCUGAAGGGCCUUGGUUUUUUG [A100C C104U A121G]  1.96
